Results published in article PMC9259645, “Discovery of archaeal fusexins homologous to eukaryotic HAP2/GCS1 gamete fusion proteins” (Nature Communications, 2022).

Target: the molecule itself
Assay: crystal structure; X-ray, 2.3 Å, space group C2, three-fold non-crystallographic symmetry; crystals grown at 20 °C from purified Fsx1E (in 20 mM Na-HEPES pH 7.8, 2.5 M NaCl) mixed with 23% PEG 4000, 0.1 M Tris-HCl pH 8.5, 0.2 M CaCl2

B1: Fusexin1 ectodomain (Fsx1E), residues D25-S535 with T369C, crystallised construct (domain or fragment, UniProt C0HM55 25-535, looked up)
chain: DSITYNSGTSEFFDGDVFAIEVTADQSTDEIDIYLGASELSEKTDGEVNQDLSIEFTHQDSKLKYSTSTSDELRDIVTLTTYYEDGFDTEQDAIDAIKSDCYDLNQNGNGSGRYSRYYSVTSPVYDYEIYCFQKNEKLATPAYIDNPDEIFTAKAELQAGDKTIQSATLSNGDAGDGTVTDLGDSKISWNGNLDLGASEPENSRVIALYSNDFENGWRIGNKQSYEDYKTFIGGGDAYDLLIDWQDGTYTASEVEDELVNTDANQAVEEASSSTTDLVNAKVKDSSLDTGSFVYDTPELLSYPSFTVYVDAGENGYIEVTKPTGDPDIISTSSTEIKEGDEGTVCATVENVGDGEGEFSGRLSSCGEGFSIVDDQNTKNVGAGESVTYSFDVAFSSVSSESKEISGSCTFEVNGVESSDSTSVSVTGIQQSECNPGDQRREKNENDRWEIYTCQDNGLTYEYDVTCAEDEKAVAQGDNQFSCEKQDDDSGGGDNTGSDSGLFSNLFGGSGS
notes: Fusexin1 (Fsx1), archaeal fusexin from a metagenomic ORF of a hypersaline environment (IMG genome 3300000868, scaffold JGI12330J12834_1000008, ORF 8); extracellular region, residues D25-S535; Expressed from pLJ6 (derived from pHLsec3) behind the chicken Crypα signal peptide, in frame with a 3' 8xHis tag; T369C was introduced to help heavy atom derivatisation; Homotrimer in the crystal; also …
B1 was tested, and the “stoichiometry N” value was 3.
